One molecule from patent US20230391892A1 (published 2023) can be followed below.

As usually defined, the Kd is the constant that tells how readily two partners part at equilibrium.

One assay concerns the target A119 (Homo sapiens (Human), UniProt P0DOX7 1-214). The assay can be described thus: BLI (Octet RED96), antagonist captured on biosensor, ligand in solution. As for the experimental part:
(§1) Binding activities of individual bifunctional antagonists to human ligands were measured by biolayer interferometry (BLI) using Octet RED96 (FortéBIO, Pall Corporation, USA). Binding analysis was performed by first capturing the polypeptide bifunctional antagonists to biosensors. To measure the rate of association and dissociation, the bifunctional antagonists-captured biosensors were dipped in wells containing different concentrations of ligands (such as TNF-α, TGF-β1 and TGF-β3) diluted in 1× kinetic buffer for 10 min followed by 10-20 min in 1× kinetic buffer. Note that all the ligands tested were recombinantly produced based on their human sequences. The bifunctional polypeptide antagonists-captured sensors were also submerged in wells containing 1×kinetic buffer to allow single reference subtraction in order to compensate for natural dissociation of the captured bifunctional antagonists. The binding sensorgrams were collected using the 8-channel detection mode on the biosensor. Data were acquired and analyzed using the FortéBIO Data acquisition software v11.1 (FortéBIO, Pall Corporation, USA)

The target of another assay is A120 (Homo sapiens (Human), UniProt P0DOX7 1-214). The description is as above. As for the experimental part:
as §1

B1: TGF-β3 (ligand)
chain: ALDTNYCFRNLEENCCVRPLYIDFRQDLGWKWVHEPKGYYANFCSGPCPYLRSADTTHSTVLGLYNTLNPEASASPCCVPQDLEPLTILYYVGRTPKVEQLSNMVVKSCKCS
notes: also called Transforming Growth Factor-Beta 3
Regarding B1, the Kd in the assay with A119 and with A120 was roughly 1 pM in each case.
